The values that follow come from US20060269549A1 (APPLIED MOLECULAR EVOLUTION, published 2006).

Assay [1] concerns the target T1, human TNF-α (human, UniProt P01375 77-233).
T1 construct: It was biotinylated in some screening assays; also called hTNF-α; hTNF
Nature of the assay: ELISA, Fab dilution series on human TNF-α (Example 1; the filing does not say which of its two ELISA formats: hTNF-α-coated plate, or Fab captured on anti-human kappa with 5 nM biotinylated hTNF-α). In general terms: ELISA stands for enzyme-linked immunosorbent assay.

Assay [2] has as its target T1, human TNF-α. Nature of the assay: KinExA 3000 kinetic exclusion assay. In general terms: In KinExA the mixture passes briefly over coated beads that capture the unbound partner.
In assay [3] the target is T1, human TNF-α. Nature of the assay: cell-based or functional assay.
Assay [4] deals with T1, human TNF-α. Nature of the assay: calculated from Kd = koff/kon (KinExA). The procedure:
(§1) Next, binding kinetics of three of the Fab fragments described in Table 4 were determined in a kinetic exclusion assay. Affinity measurements were performed on a KinExA™3000 instrument (Sapidyne Instruments, Inc., Boise, Id.) using Fab fragments (A10K, A9K, and A10P) released from the periplasmic space whose concentration was determined by a quantitative ELISA. Briefly, antigen and antibody fragment were allowed to react in solution and the fraction of unbound reagent was determined by capture and measured on a bead support. Binding kinetics can be determined or calculated from the amount of unbound reagent. For instance, after interaction between TNF-α and a Fab fragment has occurred in solution, binding of the unreacted, free Fab fragment to TNF-α coated beads can be measured on the instrument by detection with a labeled secondary antibody to the Fab fragment (e.g., a goat anti-IgG (heavy and light)). […] For A10K and A10P, the Fab concentration was 10 pM with the human TNF-α concentration beginning at 160 pM and then serially diluted to 0.078 pM with the final tube containing no human TNF-α. A9K incubation was set in a similar manner, with the Fab at a constant concentration of 20 pM and human TNF-α serially diluted beginning at 500 pM with a final concentration of 0.24 pM. After the incubation, the amount of unbound Fab in the equilibrated samples was determined on the KinExA™3000 instrument according to the manufacturer's instructions. Kd values were determined by the instrument software.
To measure kₒₙ, individual Fab fragments at a concentration of 40 pM were mixed with 400 pM of hTNF-α. A series of measurements were taken over a time course. The resulting data was used to calculate the kₒₙ with the instrument software. koff was calculated by using the formula Kd=koff/kₒₙ.

Assay [5] deals with T1, human TNF-α. Kind of assay: KinExA 3000 kinetic exclusion assay, 40 pM Fab mixed with 400 pM hTNF-α, time course; lower end of the printed range for A10K. The method, then: (§2) Next, binding kinetics of three of the Fab fragments described in Table 4 were determined in a kinetic exclusion assay. Affinity measurements were performed on a KinExA™3000 instrument (Sapidyne Instruments, Inc., Boise, Id.) using Fab fragments (A10K, A9K, and A10P) released from the periplasmic space whose concentration was determined by a quantitative ELISA. Briefly, antigen and antibody fragment were allowed to react in solution and the fraction of unbound reagent was determined by capture and measured on a bead support. Binding kinetics can be determined or calculated from the amount of unbound reagent. For instance, after interaction between TNF-α and a Fab fragment has occurred in solution, binding of the unreacted, free Fab fragment to TNF-α coated beads can be measured on the instrument by detection with a labeled secondary antibody to the Fab fragment (e.g., a goat anti-IgG (heavy and light)). […] After the incubation, the amount of unbound Fab in the equilibrated samples was determined on the KinExA™3000 instrument according to the manufacturer's instructions. Kd values were determined by the instrument software.
(§3) To measure kₒₙ, individual Fab fragments at a concentration of 40 pM were mixed with 400 pM of hTNF-α. […] The resulting data was used to calculate the kₒₙ with the instrument software. koff was calculated by using the formula Kd=koff/kₒₙ.

The target in assay [6] is T1, human TNF-α. Kind of assay: KinExA 3000 kinetic exclusion assay, periplasmic Fab with hTNF-α in solution, 20 h at 20 C. The procedure: as §1
Assay [7] concerns the target T1, human TNF-α. Kind of assay: KinExA 3000 kinetic exclusion assay, 40 pM Fab mixed with 400 pM hTNF-α, time course. The method, then: as §2, §3

Substitutions are numbered along the chain they refer to. Names may count otherwise.

T1 sequence (P01375 77-233 limits assumed): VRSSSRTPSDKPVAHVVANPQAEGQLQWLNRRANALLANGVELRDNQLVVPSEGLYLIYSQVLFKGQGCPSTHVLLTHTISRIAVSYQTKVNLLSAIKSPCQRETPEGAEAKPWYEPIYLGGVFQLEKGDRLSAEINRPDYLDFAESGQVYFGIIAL

B1: 2E7K Fab fragment (Fab, name in Kabat numbering, V domains shown)
VH: EVQLVESGGGLVQPGGSLRLSCAASGFKFSNHWMNWVRQAPGKGLEWVGEIRSKSMNSATHYARSVKGRFTISRDDSKNSLYLQMNSLKTEDTAVYYCARNYYGSTYDHWGQGTLVTVSS
VL: EIVLTQSPDFQSVTPKEKVTITCRASQFVGLSIHWYQQKPDQSPKLLIKYASESRSGVPSRFSGSGSGTDFTLTINSLEAEDAATYYCQQSHSWHFTFGQGTKVEIK
In general, EC50 (read off the curve) refers to the midpoint of the concentration-response curve. Read a low EC50 (read off the curve) as an effect from little substance. Turning to B1, in the assay with human TNF-α [1], the “EC50 (read off the curve)” value is roughly 0.02 µg/mL.

B2: AME 3-2 antibody (antibody, V domains shown)
VH: B1 VH with K28T, S30R, M56I, H61F, R64E, T106Y
VL: DIQMTQSPSSLSASVGDRVTITCVTTQFVGYAIHWYQQKPGKAPKLLIYYASSSRSGVPSRFSGSGSGTDFTLTISSLQPEDFATYYCQQSHGWPFTFGQGTKVEIK
For orientation: Kd means the concentration at which binding is half-saturated. A high value points to a looser complex. The term koff denotes the rate constant with which the complex falls apart. For orientation: kon means the rate constant with which the complex forms. In the assay with human TNF-α [2], B2 came in with a Kd of 0.01 pM, a koff of 2.6e-08 s⁻¹ and a kon of 2.6e+06 M⁻¹ s⁻¹.

B3: A10K IgG (antibody, V domains shown)
VH: B1 VH with R64E
VL: B1 VL with L31Y
On to B3, for which the “EC50, L929 cell protection assay (FIG. 10)” value in the assay with human TNF-α [3] was roughly 2.7 pM.

B4: A10K Fab fragment (Fab, V domains shown)
VH: B1 VH with R64E
VL: B1 VL with L31Y
notes: Fab released from the E. coli periplasm; Mutations against hu1: light S31Y, M55R; heavy T28K, I53M
On to B4, for which, in the assay with human TNF-α [4], the off-rate (koff) was 1.96e-05 to 3.76e-05 s⁻¹. For the same molecule, in the assay with human TNF-α [3], the “EC50, L929 cell protection assay (FIG. 8)” value was roughly 25 pM and the “EC50, L929 cell protection assay (FIG. 9)” value is roughly 67 pM. The molecule further had a kon with human TNF-α [5] of 3.9e+06 to 7.51e+06 M⁻¹ s⁻¹. In addition, in the assay with human TNF-α [1], the “EC50 (read off the curve)” value was roughly 0.02 µg/mL. The same molecule yielded a dissociation constant (Kd) with human TNF-α [6] of 3.5 to 7.2 pM.

B5: hu1 Fab fragment (Fab, V domains shown)
VH: B1 VH with K28T, M56I, R64E
VL: B1 VL with L31S, R55M
notes: Parent Fab with fully human frameworks
With B5, the binding result in the assay with human TNF-α [1] is “binds”.

B6: 2E7P Fab fragment (Fab, name in Kabat numbering, V domains shown)
VH: B1 VH with K28P
VL: B1 VL
Take B6: the “EC50 (read off the curve)” value in the assay with human TNF-α [1] was roughly 0.03 µg/mL.

B7: A9P Fab fragment (Fab, name in Kabat numbering, V domains shown)
VH: B1 VH with K28P
VL: B1 VL with L31M, R55K
Take B7: the “EC50 (read off the curve)” value in the assay with human TNF-α [1] is roughly 0.02 µg/mL.

B8: A9K Fab fragment (Fab, name in Kabat numbering, V domains shown)
VH: B1 VH
VL: B1 VL with L31M, R55K
For B8, the kon in the assay with human TNF-α [7] was determined as 2.6e+06 M⁻¹ s⁻¹. The koff with human TNF-α [4] is 6.2e-06 s⁻¹. In addition, the “EC50 (read off the curve)” value with human TNF-α [1] was roughly 0.02 µg/mL. In the assay with human TNF-α [6], this molecule gave a Kd of 2.4 pM.

B9: 2C6P Fab fragment (Fab, name in Kabat numbering, V domains shown)
VH: B1 VH with K28P, M56I
VL: B1 VL with S54Y, R55M
As for B9, in the assay with human TNF-α [1], the “EC50 (read off the curve)” value was roughly 0.02 µg/mL.

B10: 2C6K Fab fragment (Fab, name in Kabat numbering, V domains shown)
VH: B1 VH with M56I
VL: B1 VL with S54Y, R55M
On to B10, for which, in the assay with human TNF-α [1], the “EC50 (read off the curve)” value was roughly 0.02 µg/mL.

B11: A10P Fab fragment (Fab, name in Kabat numbering, V domains shown)
VH: B1 VH with K28P, R64E
VL: B1 VL with L31Y
With B11, the kon with human TNF-α [7] is 4.1e+06 M⁻¹ s⁻¹. Moreover, in the assay with human TNF-α [4], the koff is 8.2e-06 s⁻¹. Besides, the “EC50 (read off the curve)” value with human TNF-α [1] was roughly 0.02 µg/mL. The Kd with human TNF-α [6] is 2 pM.
